{
  "source": "paper PMC13049129",
  "molecular_target": "HnRNPA3-Myc (Homo sapiens) (UniProt P51991)",
  "sequence (P51991 whole entry)": "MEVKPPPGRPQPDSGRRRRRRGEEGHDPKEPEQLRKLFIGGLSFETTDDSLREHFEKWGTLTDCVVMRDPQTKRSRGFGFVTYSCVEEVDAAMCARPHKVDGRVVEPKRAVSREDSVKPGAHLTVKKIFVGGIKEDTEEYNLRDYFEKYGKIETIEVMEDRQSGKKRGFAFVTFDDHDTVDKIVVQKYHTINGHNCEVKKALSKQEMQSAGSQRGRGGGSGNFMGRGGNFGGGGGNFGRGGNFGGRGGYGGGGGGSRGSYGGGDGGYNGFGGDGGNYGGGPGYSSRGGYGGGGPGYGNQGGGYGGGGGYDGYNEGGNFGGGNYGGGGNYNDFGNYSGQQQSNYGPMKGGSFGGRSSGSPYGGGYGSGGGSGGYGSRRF",
  "assay": "EMSA",
  "details": "RNA-EMSA: 40 mM Tris pH 7.4, 30 mM KCl, 1 mM MgCl2, 0.1% IGEPAL CA-630, 1 mM DTT, 10 ug/ml BSA, 37 C, 30 min; 15% polyacrylamide gel stated to contain 8 M urea.",
  "data": [
    {"sequence": "GGGAUGUUAAAGAUGAGCGGGUGGCAGCGACAGAGCCAAAAUCAGAGCUGGAACCUGAGGAGAGAGUGUUCAAGAAGGAAGUGUAUCUUCAUACAUCACCACACCUGAAA [huORFchop RNA (105 nt)]", "values": [
      {"measurement": "binding", "value": "binds"}
    ]}
  ]
}
